The values below come from publication doi:10.1101/2021.10.15.464611.

This test has as its target anti-PfTRAP monoclonal antibody AKBR-7 (mouse). Briefly: BLI. Background: Biolayer interferometry detects binding as a change in optical thickness at a sensor tip.

B1: Plasmodium falciparum TRAP ectodomain (PfTRAP) (domain or fragment)
chain: RDVQNNIVDEIKYSEEVCNDQVDLYLLMDCSGSIRRHNWVNHAVPLAMKLIQQLNLNDNAIHLYVNVFSNNAKEIIRLHSDASKNKEKALIIIRSLLSTNLPYGRTNLTDALLQVRKHLNDRINRENANQLVVILTDGIPDSIQDSLKESRKLSDRGVKIAVFGIGQGINVAFNRFLVGCHPSDGKCNLYADSAWENVKNVIGPFMKAVCVEVEKTASCGVWDEWSPCSVTCGKGTRSRKREILHEGCTSEIQEQCEEERCPPKWEPLDVPDEPEDDQPRPRGDNSSVQKPEENIIDNNPQEPSPNPEEGKDENPNGFDLDENPENPPNPDIPEQKPNIPEDSEKEVPSDVPKNPEDDREENFDIPKKPENKHDNQNNLPNDKSDRNIPYSPLPPKVLDNERKQSDPQSQDNNGNRHVPNSEDRETRPHGRNNENRSYNRKYNDTPKHPEREEHEKPDNNKKKGESDNKYK
As for B1, the Kd (usually the equilibrium constant for the complex coming apart) was 0.15 nM.
